# Results taken from patent US20080075726A1 (VACCINEX, published 2008).
# T1: recombinant rat IL-6 (rat, UniProt P20607 25-211)
# T1 sequence (looked up): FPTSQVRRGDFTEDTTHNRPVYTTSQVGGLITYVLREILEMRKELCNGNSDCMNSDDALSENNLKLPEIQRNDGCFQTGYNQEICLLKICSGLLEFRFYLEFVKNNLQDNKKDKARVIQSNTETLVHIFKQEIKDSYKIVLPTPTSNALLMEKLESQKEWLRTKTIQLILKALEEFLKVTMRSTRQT
# T2: recombinant murine IL-6 (murine, UniProt P08505 25-211)
# T2 sequence (looked up): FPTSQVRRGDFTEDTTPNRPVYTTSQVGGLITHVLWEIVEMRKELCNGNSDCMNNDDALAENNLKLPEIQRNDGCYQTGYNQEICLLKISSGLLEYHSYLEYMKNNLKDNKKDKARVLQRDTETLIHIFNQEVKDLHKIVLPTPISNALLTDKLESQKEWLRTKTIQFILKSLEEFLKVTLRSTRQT
# T3: natural monkey IL-6 from rhesus monkey serum (rhesus monkey, UniProt P51494 28-212, limits assumed)
# T3 sequence (looked up): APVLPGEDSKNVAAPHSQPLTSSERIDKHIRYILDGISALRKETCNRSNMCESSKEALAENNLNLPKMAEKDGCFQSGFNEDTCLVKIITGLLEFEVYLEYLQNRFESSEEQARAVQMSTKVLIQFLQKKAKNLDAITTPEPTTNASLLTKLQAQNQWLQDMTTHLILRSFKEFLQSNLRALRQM
# Columns and labels:
# recombinant human IL-6 [1] = molecular target: T4, recombinant human IL-6 (human, UniProt P05231 30-212, limits assumed); assay: flow cytometry blocking assay: biotinylated rhIL-6 (12 ng/ml on the sheet; 12.5 ng/ml in paragraph 183) pre-incubated with the mAb, then U266 cells bearing IL-6 receptor added; cell-bound IL-6 shown with streptavidin-PE; readout % inhibition
# T4 construct: also called rhIL6; human recombinant IL-6
# Description: FcR-blocked U266 cells (about 250,000 cells) were then added and co-incubated for another 30 min on ice. […] After washing, the cells were analyzed by flow cytometry.
# recombinant human IL-6 [2] = molecular target: T4, recombinant human IL-6; assay: competition ELISA, rhIL-6 in solution against captured IL-6
# Description: (§1) Briefly, plates were coated with 2 μg/ml of mBE4 capture antibody in coating buffer, 100 μl per well. The plates were incubated overnight. Next, the plates were washed 3 times and tapped dry. The plates were then blocked with 200 μl per well of Assay Diluent or 10% FBS in PBS and incubated for 2 hours. […] The reaction was left at RT for 3-4 hours. […] Next, the plates were washed 3 times and tapped dry. […] The plates were incubated for 1-2 hours. The plates were washed 3 times and tapped dry. […] The plates were incubated at RT for 2 hours. (Therefore, any unbound mAb at this point will be measured by ELISA). Plates were then washed 5 times and tapped dry. 100 μl of detection Ab goat anti-human IgG F(ab)′2-HRP (Jackson lab) was added at 1:20,000 dilutions or 1:40,000 dilutions (depending on lot) and the plates were incubated for 1-2 hours. The plates were washed 7 times and tapped dry. Next, the Developer Substrate (equal parts of each reagent in the kit) was pre-mixed and allowed to warm to room temperature before use. Then 100 μl of Developer was added to each well. The plates were allowed to develop for 15 minutes un-sealed in a drawer in the dark. Finally, developing was stopped by adding 100 μl of 2N H₂SO₄ to each well and plates were read as Endpoint at 450 nm-[…].
# recombinant human IL-6 [3] = molecular target: T4, recombinant human IL-6; assay: Biacore 2000, mAb captured on anti-human IgG CM5 chip, human IL-6 40-1.25 nM injected
# Description: (§2) IC50 ELISA was performed as described above. Affinity analysis by Biacore was performed according to manufacturer protocols using HBS-EP buffer (Biacore AB).
# recombinant human IL-6 [4] = molecular target: T4, recombinant human IL-6; assay: competition ELISA, rhIL-6 in solution against captured IL-6 (Affinity (nM) by IC50 ELISA)
# Description: as §1, §2
# recombinant rat IL-6 = molecular target: T1, recombinant rat IL-6; assay: ELISA on coated rat IL-6; human mAbs detected with rabbit anti-human IgG-HRP; series 100, 50, 25, 12.5 ng/ml (antibody by paragraph 42; headed mIL-6 (ng/ml) on the sheet)
# Description: (§3) For sample “0,” no antibody was added. […] Each column represents a mean of two experiments +/− standard deviation.
# (§4) For experiments using human monoclonal antibodies, IgG1 Kappa (human myeloma IgG1; Sigma-Aldrich Co.) mAb was used as a control. Rabbit anti-human IgG-HRP (Dako) was added at a dilution of 1/10,000 at 100 μl/well for detection of mAbs. […] For pAbs, Streptavidin-HRP (Prozyme) was added for detection at 100 μl/well. Antibodies were applied at concentrations of 12.5, 25, 50, and 100 ng/ml.
# recombinant murine IL-6 = molecular target: T2, recombinant murine IL-6; assay: ELISA on coated murine IL-6; human mAbs detected with rabbit anti-human IgG-HRP; series 100, 50, 25, 12.5 ng/ml (antibody by paragraph 42; headed mIL-6 (ng/ml) on the sheet)
# Description: as §3, §4
# human insulin = human insulin (human, UniProt P01308 25-54; P01308 90-110, limits assumed); assay: ELISA on a panel of control antigens (data not shown)
# human serum albumin = human serum albumin (human, UniProt P02768 25-609); assay: as above
# bovine serum albumin = bovine serum albumin (bovine, UniProt P02769 25-607); assay: as above
# [5] = molecular target: T3, natural monkey IL-6 from rhesus monkey …; assay: competition ELISA (U-Cytech Monkey IL-6 kit): rhesus monkey serum (plasma on the sheet) at dilutions 1/10 to 1/640 with the antibody at 5 µg/ml as competitor of the kit's coated IL-6 antibody; a lower OD than the sample '0' means binding
# human serum albumin, sequence (P02768 25-609 limits assumed): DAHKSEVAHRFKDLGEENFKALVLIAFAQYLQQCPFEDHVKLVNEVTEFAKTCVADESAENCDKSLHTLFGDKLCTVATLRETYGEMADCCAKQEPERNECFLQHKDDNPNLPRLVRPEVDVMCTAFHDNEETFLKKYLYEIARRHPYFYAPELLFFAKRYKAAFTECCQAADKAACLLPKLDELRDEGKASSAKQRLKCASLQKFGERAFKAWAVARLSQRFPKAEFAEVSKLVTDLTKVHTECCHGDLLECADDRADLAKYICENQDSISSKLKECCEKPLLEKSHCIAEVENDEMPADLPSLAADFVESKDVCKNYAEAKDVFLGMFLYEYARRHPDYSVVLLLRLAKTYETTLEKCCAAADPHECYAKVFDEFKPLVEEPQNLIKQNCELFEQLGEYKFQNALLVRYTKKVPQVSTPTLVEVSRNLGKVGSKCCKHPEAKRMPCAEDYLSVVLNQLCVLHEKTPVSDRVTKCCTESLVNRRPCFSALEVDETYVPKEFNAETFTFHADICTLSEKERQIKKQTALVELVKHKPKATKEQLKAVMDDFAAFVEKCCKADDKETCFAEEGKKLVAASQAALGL
# bovine serum albumin, sequence (P02769 25-607 limits assumed): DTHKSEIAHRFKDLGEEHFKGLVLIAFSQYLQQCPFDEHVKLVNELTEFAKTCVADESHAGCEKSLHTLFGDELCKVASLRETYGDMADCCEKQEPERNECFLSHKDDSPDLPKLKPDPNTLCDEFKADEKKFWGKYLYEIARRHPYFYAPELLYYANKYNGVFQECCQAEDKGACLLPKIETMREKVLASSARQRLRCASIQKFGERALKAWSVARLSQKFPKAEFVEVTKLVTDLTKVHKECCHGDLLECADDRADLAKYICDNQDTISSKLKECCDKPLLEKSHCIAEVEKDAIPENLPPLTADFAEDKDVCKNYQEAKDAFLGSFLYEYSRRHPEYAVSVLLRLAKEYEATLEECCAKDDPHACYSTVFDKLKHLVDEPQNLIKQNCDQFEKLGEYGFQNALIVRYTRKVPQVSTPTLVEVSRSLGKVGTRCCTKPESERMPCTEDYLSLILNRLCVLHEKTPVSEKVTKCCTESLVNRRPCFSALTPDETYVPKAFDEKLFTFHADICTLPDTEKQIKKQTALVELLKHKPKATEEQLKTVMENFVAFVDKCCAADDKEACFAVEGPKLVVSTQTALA
# human insulin, sequence (P01308 25-54 limits assumed, chain 1 of 2): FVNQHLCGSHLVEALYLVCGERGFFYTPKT
# human insulin, sequence (P01308 90-110 limits assumed, chain 2 of 2): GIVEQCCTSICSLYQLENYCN
binder,measurement,setting,value
"murine mAb B-E8 (antibody, V domains shown, Biotinylated in FIG. 16., Murine anti-IL-6 antibody from which the human mAbs were derived; also called Elsilimomab) VH: QVTLKESGPGILKPSQTLSLTCSFSGFSLSTSGMGVGWIRQPSGKGLEWLAHIWWDDDKYYNPSLKSQLTISKDTSRNQVFLKITSVDTADTATYYCARSYDDYLYYALDYWGQGTSVTVSS VL: DIVMTQSPATLSVTPGDRVSLSCRASQSISDYLHWYQQKSHESPRLLIKSVSQSISGIPSRFSGSGSGSDFTLSINSVEPEDVGVYYCQNGHSFPLTFGAGTKLELK",IC50 (read off the curve),recombinant human IL-6 [1],~0.02 mg/L
"mAb 88 (chimeric B-E8 control antibody) (antibody, V domains shown, Biotinylated in FIG. 16., Chimeric form of murine B-E8; also called control mAb 88) VH: QVTLKESGPGILKPSQTLSLTCSFSGFSLSTSGMGVGWIRQPSGKGLEWLAHIWWDDDKYYNPSLKSQLTISKDTSRNQVFLKITSVDTADTATYYCARSYDDYLYYALDYWGQGTSVTVSS VL: DIVMTQSPATLSVTPGDRVSLSCRASQSISDYLHWYQQKSHESPRLLIKSVSQSISGIPSRFSGSGSGSDFTLSINSVEPEDVGVYYCQNGHSFPLTFGAGTKLELK",IC50,recombinant human IL-6 [2],0.5 nM
same,Kd,recombinant human IL-6 [3],0.02 nM
same,IC50,recombinant human IL-6 [4],0.01 nM
same,binding result,recombinant rat IL-6,no binding (tested: 100 ng/ml)
same,binding result,recombinant murine IL-6,no binding (tested: 100 ng/ml (Ab: 0.1 µg/ml in the title))
same,IC50 (read off the curve),recombinant human IL-6 [1],~0.02 mg/L
"mAb 926 (antibody, human IgG1, kappa, V domains shown) VH: QVTLKESGPTLVKPTQTLTLTCSFSGFSLSTSGVGVGWVRQPPGKALEWLAFIFWDDDKYYSPSLESRLTITKDTSKNQVVLTMTNMDPVDTATYYCARSADDYLYYALDYWGQGTLVTVSS VL: DIQMTQSPSSLSAFVGDGVTMTCWASQSINDYLNWYHQRPGEAPELLVFAASNLQIGVPSRFRGSGSETYFTLTINSLQPEDSGTYFCQNGHSFPLTFGGGTKLEIKR",IC50,recombinant human IL-6 [2],0.07 nM
same,Kd,recombinant human IL-6 [3],0.13 nM
same,IC50,recombinant human IL-6 [4],0.033 nM
same,binding result,recombinant rat IL-6,no binding (tested: 100 ng/ml)
same,binding result,recombinant murine IL-6,no binding (tested: 100 ng/ml (Ab: 0.1 µg/ml in the title))
"mAb 1339 (antibody, human IgG1, kappa, V domains shown) VH: QVTLKESGPTLVKPTQTLTLTCSFSGFSLSTSGVGVGWVRQPPGKALEWLAFIWWDDDKYYSPSLESRLTITKDTSKNQVVLTMTNMDPVDTATYYCARSADDYLYYSFDTWGQGTLVTVSS VL: DIQMTQSPSSLSAFVGDGVTMTCWASQSINDYLNWYHQRPGEAPELLVFAASNLQIGVPSRFRGSGSETYFTLTINSLQPEDSGTYFCQNAHSFPLTFGGGTKLEIKR",binding result,human insulin,no binding
same,binding result,human serum albumin,no binding
same,binding result,bovine serum albumin,no binding
same,IC50,recombinant human IL-6 [2],0.026 nM
same,Kd,recombinant human IL-6 [3],0.071 nM
same,IC50,recombinant human IL-6 [4],0.026 nM
same,binding result,recombinant rat IL-6,no binding (tested: 100 ng/ml)
same,binding result,recombinant murine IL-6,no binding (tested: 100 ng/ml (Ab: 0.1 µg/ml in the title))
same,binding result,[5],binds
"mAb 416 (antibody, V domains shown) VH: QVTLKESGPTLVKPTQTLTLTCSFSGFSLSTSGVGVGWVRQPPGKALEWLAFIFWDDDKYYSPSLESRLTITKDTSKNQVVLTMTNMDPVDTATYYCARSYDDYLYYALDYWGQGTLVT VL: DIQMTQSPSSLSAFVGDGVTMTCWASQSINDYLNWYHQRPGEAPELLVFAASNLQIGVPSRFRGSGSETYFTLTINSLQPEDSGTYFCQNGHSFPLTFGGGTKLEI",IC50,recombinant human IL-6 [2],0.6 nM
same,Kd,recombinant human IL-6 [3],0.3 nM
same,IC50,recombinant human IL-6 [4],0.056 nM
"mAb 1338 (antibody, V domains shown) VH: QVTLKESGPTLVKPTQTLTLTCSFSGFSLSTSGVGVGWVRQPPGKALEWLAFIWWDDDKYYSPSLESRLTITKDTSKNQVVLTMTNMDPVDTATYYCARSADDYLYYSFDTWGQGTLVT VL: DIQMTQSPSSLSAFVGDGVTMTCWASQSINDYLNWYHQRPGEAPELLVFAASNLQIGVPSRFRGSGSETYFTLTINSLQPEDSGTYFCQSGHSFPLTFGGGTKLEI",IC50,recombinant human IL-6 [2],0.031 nM
same,Kd,recombinant human IL-6 [3],0.072 nM
same,IC50,recombinant human IL-6 [4],0.031 nM
"mAb 1259 (antibody, V domains shown) VH: QVTLKESGPTLVKPTQTLTLTCSFSGFSLSTSGVGVGWVRQPPGKALEWLAFIWWDDDKYYSPSLESRLTITKDTSKNQVVLTMTNMDPVDTATYYCARSADDYLYYSFDTWGQGTLVT VL: DIQMTQSPSSLSAFVGDGVTMTCWASQSINDYLNWYHQRPGEAPELLVFAASNLQIGVPSRFRGSGSETYFTLTINSLQPEDSGTYFCQNGHSFPLTFGGGTKLEI",IC50,recombinant human IL-6 [2],0.028 nM
same,Kd,recombinant human IL-6 [3],0.093 nM
same,IC50,recombinant human IL-6 [4],0.028 nM
